# Non-standard residues stand in square brackets, D forms with d. No end group written: not given here. *: point of attachment. Butanoyl(4-N3) = [N-]=[N+]=NCCCC(=O)*; Hyp = O=C(O)[C@@H]1C[C@@H](O)CN1; Pra = C#CC[C@H](N)C(=O)O
# B1: N3-(GPO)3GFOGER(GPO)3GG (peptide)
# peptide: {Butanoyl(4-N3)}-GP[Hyp]GP[Hyp]GP[Hyp]GF[Hyp]GERGP[Hyp]GP[Hyp]GP[Hyp]GG
# notes: collagen-like peptide, printed in short form as N3-(GPO)3GFOGER(GPO)3GG and written out here; Forms a homotrimeric triple helix; details are in Supporting Information Section 1.1; also called CLP; source: synthetic peptide (Fmoc solid phase synthesis), purified by RP-HPLC
# B2: (VPGFG)6-(GPO)3GFOGER(GPO)3GG (peptide)
# chain: H-VPGFGVPGFGVPGFGVPGFGVPGFGVPGFG[Pra]GP[Hyp]GP[Hyp]GP[Hyp]GF[Hyp]GERGP[Hyp]GP[Hyp]GP[Hyp]GG
# modifications: triazole (positions not given here); not fully specified (residue 31, bridges); also: no peptide bond between residues 31 and 32, the two parts are joined by azide-alkyne cycloaddition
# notes: elastin-like peptide NH2-(VPGFG)6G', written out here; the last G stands for G' (propargylglycine); collagen-like peptide (GPO)3GFOGER(GPO)3GG as in m2; the printed O (hydroxyproline) is written as P; Two synthetic peptides joined through a triazole, written as one chain; Reaction details are in Supporting Information Section 1.2; also called F6-GFOGER; ELP-CLP conjugate; source: synthetic …
# Tests used:
# [1] = target: the molecule itself; test: circular dichroism spectroscopy; free CLP peptides, 0.35 mM in HPLC grade water (pH 6.5 at 4°C), 0.2 cm cuvette; wavelength scans at 4 and 80°C and melting scans; monomers to triple helix
# [2] = target: the molecule itself; test: circular dichroism spectroscopy; ELP-CLP conjugates, wavelength scans at 0.1 mM and melting scans at 0.35 mM in HPLC grade water (pH 6.5 at 4°C), 0.2 cm cuvette; monomers to triple helix
Protein,stoichiometry N [1],stoichiometry N [2]
B1,3,–
B2,–,3
